{"source": "the DeepSol protein solubility set"}
{"test": "soluble on expression in E. coli; label from the status in PepcDB or PDB records"}
{"sequence": "MGSDKIHHHHHHMCIMASCLSPNWSVFDIDQSQTLQVAVQEAHARSQPLAIRGGGSKTFYGRQTPACDLLDLGGHRGIIDYAPNELFITLRAGTSLQALEAQLAEAGQMLPFEPPHFGPAATIGGTLACGFSGPRRPYAGSARDMVLGMRILNGQGEILRFGGQVMKNVAGYDVSRLMVGALGTLGVLLEVSLKVLPRPDSTVTLVWPMDPVTAVQRMNDWAGQPLPLSATAYDGEHLYIRLSGTGSAVRAAQTRLGGERLPDAEAAAFWVALREQRNDFFQGDAPLWRLAVAPATPPLPLGDQTLIEWGGGQRWLRGALDATALRQLAAEHGGHATLFRGGNRRGEVFHPLAPPLLAMQQRLKAAFDPRGILNSGRLYATL", "soluble on expression in E. coli": "not soluble"}
{"sequence": "MSLTGNAQAATIADPSTLVVDTVGPVLTIGLNRPKKRNALNDGLMAALKDCLTDIPDQIRAVVIHGIGDHFSAGLDLSELRERDATEGLVHSQTWHRVFDKIQYCRVPVIAALKGAVIGGGLELACAAHIRVAEASAYYALPEGSRGIFVGGGGSVRLPRLIGVARMADMMLTGRVYSAAEGVVHGFSQYLIENGSAYDKALELGNRVAQNAPLTNFAVLQALPMIAEANPQTGLLMESLMATVAQSDQEAKTRIRAFLDHKTAKVREGHHHHHH", "soluble on expression in E. coli": "soluble"}
{"sequence": "MGQSWGYEGIAKRSLCTHKWLYNLNLHSINLFLPIESKMSAQASRQKKSDQEQRAADQALLNAAIEDNAMEQDENFTVIDKLESSGISSGDISKLKEAGYYTYESLAFTTRRELRNVKGISDQKAEKIMKEAMKFVQMGFTTGAEVHVKRSQLVQIRTGSASLDRLLGGGIETGSITEVYGEYRTGKTQLCHSLAVLCQLPIDMGGGEGKCMYIDTNATFRPERIIAIAQRYNMDSAHVLENIAVARAYNSEHLMALIIRAGAMMSESRYAVVIVDCATAHFRNEYTGRGDLAERQMKLSAFLKCLAKLADEYGVAVIITNQVVAQVDGGASMFQADAKKPIGGHIIAHMSTTRLYLRKGKGENRVAKMVQSPNLPEAEATYSITNHGIEDARED", "soluble on expression in E. coli": "soluble"}
{"sequence": "GMSAGKTVVIALGGNAMLQAKEKGDYDTQRKNVEIAASEIYKIHKAGYKVVLTSGNGPQVGAIKLQNQAAAGVSPEMPLHVCGAMSQGFIGYMMSQAMDNVFCANNEPANCVTCVTQTLVDPKDQAFTNPTKPVGRFYTEQEAKDLMAANPGKILREDAGRGWRVVVPSPRPLEIVEYGVIKTLIDNNVLVICTNGGGIPCKRENKVISGVDAVIDKDLATSLLAKTLNSDYLMILTDVLNACINYKKPDERKLEEIKLSEILALEKDGHFAAGSMGPKVRAAIEFTQATGKMSIITSLSTAVDALNGKCGTRIIKD", "soluble on expression in E. coli": "soluble"}
{"sequence": "ADPWQECMDYAVTLARQAGEVVCEAIKNEMNVMLKSSPVDLVTATDQKVEKMLISSIKEKYPSHSFIGEESVAAGEKSILTDNPTWIIDPIDGTTNFVHRFPFVAVSIGFAVNKKIEFGVVYSCVEGKMYTARKGKGAFCNGQKLQVSQQEDITKSLLVTELGSSRTPETVRMVLSNMEKLFCIPVHGIRSVGTAAVNMCLVATGGADAYYEMGIHCWDVAGAGIIVTEAGGVLMDVTGGPFDLMSRRVIAANNRILAERIAKEIQVIPLQRDDED", "soluble on expression in E. coli": "soluble"}
{"sequence": "GPAIAENLYFQSPQLNGGGGDDLGANDELISFKDEGEQEEKSSENSSAERDLADVKSSLVNESETNQNSSSDSEAERRPPPRSESFRDKSRESLEEAAKRQDGGLFKGPPYPGYPFIMIPDLTSPYLPNGSLSPTARTYLQMKWPLLDVQAGSLQSRQALKDARSPSPAHIVSNKVPVVQHPHHVHPLTPLITYSNEHFTPGNPPPHLPADVDPKTGIPRPPHPPDISPYYPLSPGTVGQIPHPLGWQGQPVYPITTGGFRHPYPTALTVNASMSRFPPHMVPPHHTLHTTGIPHPAIVTPTVKQESSQSDVGSLHSSKHQDSKKEEEKKKPHIKKPLNAFMLYMKEMRAKVVAECTLKESAAINQILGRRWHALSREEQAKYYELARKERQLHMQLYPGWSARDNYGKKKKRKRDKQPGETNEHSECFLNPCLSLPPITGEKKSAFATYKVKAAASAHPLQMEAY", "soluble on expression in E. coli": "soluble"}
{"sequence": "MKLSLVFLLFVAFAKSADTAPVDFNKIFVTFVEELMDAINQLILEQMGAIRPSTTPLQSIPPITATDAPTTADTTAEPTKAHETTVAQEATSEGAETHETTVGQDTTVRSGESQETTVSQGTTVSQENTVSQETTVSQDTTVSQETTVSQDTTVSQDTTVSQESTVSQETTVSQDTTVSQETSVSHETNVSPDTTVSQESTVSQDTTVSQETTLSQETTVSQETTVSQDTTVSQETTASQDTTVSQDTTVSQDTTVVPQETTVEATKASEATEENGTTAVTPGESDPCDTTEAPTGGSTVGESEPCDTTEASEPTGHTDQAETVTDPASQATASATIIGGVDQTGSTNLEATTEQICKHPTKDSEEEKTDENKDEKTTRAGTNVHRPEREDILK", "soluble on expression in E. coli": "not soluble"}
{"sequence": "MSTPRTVLVVGGGAAGNAVTILLRRAGLTVDLVEAKDDWNATAGSGITLQGNALRVLRELGVWEQVEASGFGFGSVGITTPDGTVLHVQDDLRTGGDDLPATVGMQRPRLQQILIEAVRASGASVRLGTTAEILDQDSDGVHVRLSDGSEHRYDLVVAADGLGSATRAAIGITDKPEPTGMAIWRIAAPRPAGLTRTDLAYGGPAHIAGYCPTGETTLYAYVVEANRDRAGIPPASYADEMRGLTRHYGGFWPDITEHITDPAKVNYTWFDRLLVEGSWHRGRVVLVGDAAHCCPPTLAQGAALSLEDAWVLAQMLTGSDVWDDALFQAYYERRIARVRPVVAASVQIGQWQLDGVRDADLPGLMGRTMTMLRELPLEHHHHHH", "soluble on expression in E. coli": "not soluble"}
{"sequence": "PPHVEYMRRLELADYEPASDSGHIRYYPKGRLVKTLLEQFITRKCIDYGAMEVETPIMYDRNHPTLRRYLERFPARQYIIKGDKREFFLRFAACFGQFLMLSSSTITYRNLPLKIYELTRYSFRKEQRGELVGLRRLRAFTMPDMHTVAKDMEQAKEEFFNQYRLSVEVLREIGLEPEDYEVAVRITKDFYEENREFVHSLVDILKKPILIEMWDHRFFYFVLKFEFNFVDALDKASALSTVQIDVENAERYGITFVDSDGKEKHPYILHCSVSGAVERVMYALLEKAK", "soluble on expression in E. coli": "not soluble"}
{"sequence": "MAAGVAAWLPFARAAAIGWMPVASGPMPAP", "soluble on expression in E. coli": "soluble"}
{"sequence": "MYNVTQHATYKTKNKRETAVLIGVHAQTDRQFNFESTMEELDALSQTCQLNVKGQITQNREQFDHKYYVGKGKIDEIKSFIEFHDIDVVVTNDELTTAQSKTLNDNLGIKIIDRTQLILEIFALRARSREGKLQVELAQLDYLLPRLHGHGKSLSRLGGGIGTRGPGETKLEMDRRHIRTRMNEIKHQLKTVVDHRERYRNKREQNQVFQIALVGYTNAGKSSWFNVLANEETYEKNILFATLDPKTRQIQVNEGFNLIISDTVGFIQKLPTTLVAAFKSTLEEAKGADVLMHVVDASHSEYRTQIDTVNQIINDLDMDHIPQVVIFNKKDLCNEQMDVPVSKSAHVFVSSRDENDKQKVKNLVIQEIKNSLSPYEEIVDSADADRLYFLKQHTLVTELIFDETQASYRIKGFKKLLEHHHHHH", "soluble on expression in E. coli": "not soluble"}
{"sequence": "MGSDKIHHHHHHMSEKKILILCQYFYPEYVSSATLPTQLAEDLIANHINVDVMCGWPYEYSNHKQVSKTEMHRGIRIRRLKYSRFNNKSKVGRIINFFSLFSKFVINIPKMLKYDQILVYSNPPILPLIPDVLHRLLKKKYSFVVYDIAPDNAIKTGATRPGSMIDKLMRYINRHVYKNAENVIVLGTEMKNYLLNHQISKNADNIHVIPNWYDMRQLQDNRIYNDTFKAYREQYDKILLYSGNMGQLQDMETLISFLKLNKDQPQTLTILCGHGKKFADVKTAIEDHRIENVKMFEFLTGTDYADVLKIADVCIASLIKEGVGLGVPSKNYGYLAAKKPLVLIMDKQSDIVQHVEQYDAGIQIDNGDAHAIYNFINTHSSKELHEMGERAHQLFKDKYTREINTMKYYNLLK", "soluble on expression in E. coli": "not soluble"}
{"sequence": "GMNVNFINPFLQSLLNVISTMASLELTPGKPQIKTDNLAKGDVSGLIGMVGPQTKGSLSITFEQKLVLQIMQNMLGENPGKINEEVTDLVGEITNMVTGGAKNLLGQKGYEFEMATPMVVSGQGHTISHKANGTKIIMPFTSSYGTAFIEVCFES", "soluble on expression in E. coli": "soluble"}
{"sequence": "MGSDKIHHHHHHMMNKPAPRELEVIRSTYITPHMLRITLGGAGLAGFPADQESAYIKLLFPQAGERPLMRTYTIRQQRDDEIDVDFVLHDTDGPASSWAKTAQVGELIQIGGPGLKKLINFEADWFLLAGDMTALPAISVNLAKLPNNAVGYAVIEVLSEADIQPLVHPEHVELHWVINPEADPEGRPLVERIAQLPWLAGEPAVWIACEFNSMRALRRHFKQAHALPKSHFYTSSYWKIGCNEGEHKLVKQEDEQLENGASV", "soluble on expression in E. coli": "not soluble"}
{"sequence": "FSQHVSANLNLPSPSLNTPLNWLLTSVDEVMFNQQLHGSAVHINCAFPEPLYSDGEKSAYQSYLSSVEAWRKGGQTYTQRFVSPSFRDIPFCADRKGVVVIGSLSAEHAQEAKAFAQQMGWPVLADPQSGVSSDWSHYDLWLQQPKLASQLDECDLVLQFGSRIISKRLNQWINKQVSQSQQGRDVQYWFISPSLSRDNQTHLPQLHWVASPKSWVERVDVKSSSTQGWADGLLTDIAHVRAHISDEFLFSSASTLNEIALAADIEERTQSVDVFLGNSLFVRLVDMFGRLNTEVFTNRGASGIDGLFATASGVQRSRGKPLLMYIGDTSALYDLNSLALFSRNDLPSVLVVTNNDGGAIFDMLPVPQEHRTAYYQMPHGYQFEHAAKQFGLKYEKPTTLQMYQAMVADHLSSGQGTMLVEVQTPPSQAAELIKAFNKSLHASL", "soluble on expression in E. coli": "not soluble"}
{"sequence": "MLVSKSNGFNASAVLGSGSYNENKSSKHMELLAHSILKLICKEAASETYRGALETLQKMMSECIYQEGNAFVIMGAGEQLKRIKYEVGENNLKVFNVHFNNNHELVSSGEPDVICLSKQVWENLLIKLKLENNENVFSETKKLSNKNNADQFFECAKRNE", "soluble on expression in E. coli": "not soluble"}
{"sequence": "MSTKSIATSSTASSSSSHHQEHTVTELIMFFTSEEPPEPEPFSRSTEKSGIRTSKVITRTITISAETKLKMDLLEEQRREKRVKLEIEKSRIRAENLQRMQEISSEPKTRGSKRSLMRRAAKRTKGRISSLLIRDSSVDSGSITDKALKDKKRGLSLEWEVKDQGRFAESFSDSRLMEMFQHPSGMPIEPDVMMEGYLYKRSSNAFKTWNRRWFQIKDKQLLYSHRSTDLEPATIMEENLRICLVRPAPSNIDRIGCFELVTPTRIHLLQADSESLCQDWMRALQRTILALHEGDSVDVASTSPRNKTTSMSSGVTLTSANAISPLSNAMDVTKGRSVSDPASTYTSANTSSISTAAGFSSSTTAFEQVRRVPGNEVCADCGSPAPKWVSINLGVVLCIECSGAHRSLGVQTSKVRSLCMDSIDNELRDVLLALGNRQVNEIFLAHLPPADSIVPPQINEKSARPAREAWIKAKYVERRFAVAEDTRARSSATNRQEHLKHKTSIGGNSSSNGVNRSSSYADVQDAESGGLLDADPWSADLSVPVPTASKRLSACGSDTNLDAIGSSSIDTKTVEWDSVKEACECGDLLALMTAYAQGFDLNALHNGTTALHIATRNGQTAAVEFLLLNGAKINMLDEKLNTPLHLAAKEGHTLPVCQLLKRGADSNLANVDSKTPLDIAMECTHADIVTLFRVTIMRNDFNADFNNPMDETVEAVISDIARRAATEKEQKKTESLKSTSDI", "soluble on expression in E. coli": "not soluble"}
{"sequence": "MTMLKNNLELLKKRYPEIYNEIKDIHVDSNAYQIIQNNEGQKTLKVTLDLYGENKSFFLHSKYHPDVEADRFAREQYKPEFSIQILYGFGLGYHVEKIAGLLKPDSMLYVIENNLMVFRSALENMDLCPILENRNVSLIVSKDVGYISEKVKELIDNNLDKVSFITHPASLKAIPEENEYFKFVMENWNLKKSITDDYDNTLRNNAKENLKLNSPNVGIFFDKFKDVPIIIVSTGPSLDKNIDLLKEAKGRALIISAGSALRPLLMRNIKPDFFAIIDPQDITYNQIKGYENIGIPFIYLVTAASYTVSRYLGPKLVAYYGKYNNSSEHLVDSGGSVATTILDIAIKMGGNPIILVGQDLAYVDGKNHAQYGSHASIYSPELKNMRRVKGQNGEMLYTSLGLLSYKYWIENRIQKEKRIFINATEGGAYIEGMKHIKLRDVISDYLKESFDFENKIKSILKESGIQHVQG", "soluble on expression in E. coli": "soluble"}
